Assay results: patent US20230135471A1, “UBIQUITIN VARIANTS WITH IMPROVED AFFINITY FOR 53BP1” (Integrated DNA Technologies, Inc., priority 2021, published 2023)

Key:
[1] = molecular target: 53BP1 fragment (a.a. 1221-1718) fused to an adenylate cyclase fragment (two-hybrid) (UniProt Q12888); experiment: cell-based or functional assay
[2] = molecular target: 53BP1 fragment (a.a. 1221-1718) fused to an adenylate cyclase fragment (two-hybrid) (UniProt Q12888)

| Substance | Experiment 1 Average Enrichment [1] | Experiment 1 Rep 1 Enrichment [1] | Experiment 1 Rep 2 Enrichment [1] | Experiment 2 Average Enrichment [1] | Experiment 2 Rep 1 Enrichment [1] | Experiment 2 Rep 2 Enrichment [1] | % GFP+ [2] | percent GFP-positive E. coli cells, two-hybrid reporter, gate P5 [2] | GFP positive population, high selection pressure [1] | GFP positive population, low selection pressure [1] | Percent GFP Positive Rep 1 [1] | Percent GFP Positive Rep 2 [1] | Percent GFP Positive Rep 3 [1] |
| --- | --- | --- | --- | --- | --- | --- | --- | --- | --- | --- | --- | --- | --- |
| i53 + T9I two-hybrid fusion (designed binder) | 0.46 log2 | 0.3 log2 | 0.61 log2 | 0.25 log2 | -0.01 log2 | 0.52 log2 |  |  |  |  |  |  |  |
| i53 + T9S two-hybrid fusion (designed binder) | 0.4 log2 | 0.34 log2 | 0.47 log2 | 0.18 log2 | 0.19 log2 | 0.17 log2 |  |  |  |  |  |  |  |
| i53 + T9V two-hybrid fusion (designed binder) | 0.06 log2 | 0.32 log2 | -0.21 log2 | -0.15 log2 | -0.36 log2 | 0.06 log2 |  |  |  |  |  |  |  |
| i53 + T12Y two-hybrid fusion (designed binder) | 0.25 log2 | 0.14 log2 | 0.36 log2 | 0.35 log2 | 0.52 log2 | 0.17 log2 |  |  |  |  |  |  |  |
| i53 + T14D two-hybrid fusion (designed binder) | 2.88 log2 | 2.9 log2 | 2.86 log2 | 1.53 log2 | 1.65 log2 | 1.4 log2 |  |  |  |  |  |  |  |
| i53 + T14H two-hybrid fusion (designed binder) | 2.56 log2 | 2.63 log2 | 2.5 log2 | 1.65 log2 | 1.47 log2 | 1.84 log2 |  |  |  |  |  |  |  |
| i53 + T14N two-hybrid fusion (designed binder) | 2.76 log2 | 2.84 log2 | 2.69 log2 | 1.44 log2 | 1.5 log2 | 1.37 log2 |  |  |  |  |  |  |  |
| i53 + T55R two-hybrid fusion (designed binder) | -0.06 log2 | 0.11 log2 | -0.22 log2 | 0.12 log2 | 0.19 log2 | 0.05 log2 |  |  |  |  |  |  |  |
| i53 + V17C two-hybrid fusion (designed binder) | -1.08 log2 | -2.27 log2 | 0.12 log2 | 0.19 log2 | 0.6 log2 | -0.23 log2 |  |  |  |  |  |  |  |
| i53 + V26L two-hybrid fusion (designed binder) | 0.55 log2 | 0.4 log2 | 0.69 log2 | 0.55 log2 | 0.52 log2 | 0.58 log2 |  |  |  |  |  |  |  |
| i53-DM (designed binder) |  |  |  |  |  |  | 0.1% | 0.1% |  |  |  |  |  |
| i53-adenylate cyclase fragment fusion protein (two-hybrid) (designed binder) |  |  |  |  |  |  |  | 9% | 3% | 17% | 9% | 7.6% | 11.8% |
